Laboratory results from US20230218710A1 (COHBAR, published 2023).
Square brackets hold non-standard residues; d marks the D form. Primed or numbered codes have the meaning given here. Ends that are not written are not given here. PEG12′ = not defined here

T1: Apelin Receptor (APJ) stably overexpressed in CHO-K1 AGTRL1 Gi cells (UniProt P35414 1-380, limits assumed)
T1 sequence (looked up): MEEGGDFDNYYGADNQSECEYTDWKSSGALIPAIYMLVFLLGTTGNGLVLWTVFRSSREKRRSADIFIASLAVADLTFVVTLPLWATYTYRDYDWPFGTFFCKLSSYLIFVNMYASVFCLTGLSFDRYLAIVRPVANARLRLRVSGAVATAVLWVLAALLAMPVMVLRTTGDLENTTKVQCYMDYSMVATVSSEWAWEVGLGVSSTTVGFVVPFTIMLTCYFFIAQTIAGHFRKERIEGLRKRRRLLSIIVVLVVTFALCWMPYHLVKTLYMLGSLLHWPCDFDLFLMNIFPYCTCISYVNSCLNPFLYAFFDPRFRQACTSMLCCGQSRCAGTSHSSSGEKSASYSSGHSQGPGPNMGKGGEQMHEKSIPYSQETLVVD


Assays:
Assay in all cases: cell-based or functional assay
[1] = biological target: ProLink tagged human APJ (Apelin Receptor) in CHO-K1 AGTRL1 β-Arrestin cells (human, UniProt P35414 1-380)
[2] = biological target: T1, Apelin Receptor (APJ) stably …
[3] = biological target: T1, Apelin Receptor (APJ) stably …; remark: listed apart in the source

| Binder | β-Arrestin recruitment, Percent of Apelin-13 Control Activity (10 µM peptide) [1] [%] | inhibition of forskolin-induced cAMP, Percent of Pyr-Apelin-13 Control Activity (10 µM peptide) [2] [%] | IC50 (M), inhibition of forskolin-stimulated cAMP accumulation [3] [M] |
| --- | --- | --- | --- |
| RRMMGMVFQCLEG[dA] [SEQ ID NO: 14] | 0 | 39 | – |
| RRIIGIVFQSLCG[dA] [SEQ ID NO: 43] | – | – | 2.07e-06 |
| MMGMVFQSL [SEQ ID NO: 48] | 1 | 15 | – |
| [PEG12′]KRRIIGIVFQCLCG[dA] (cysteine pairing not given here) [SEQ ID NO: 42] | 8 | 33 | 4.38e-06 |
| RRMMGMVAQCLCG[dA] (cysteine pairing not given here) [SEQ ID NO: 11] | 0 | 49 | – |
| RRLLGLVFQSLEG[dA] [SEQ ID NO: 41] | 0 | 15 | – |
| RRMMGMVFQELCG[dA] [SEQ ID NO: 13] | 1 | 49 | – |
| KRRLLGLVFQSLCGA ((PEG12) at the N-terminal K; C-terminal (dA) = D-alanine) [SEQ ID NO: 37] | 12 | 53 | 2.5e-06 |
| RRMMGMVFQSLCG[dA] (also: acetate salt, HCl salt) [SEQ ID NO: 15] | 40 | 105 | 4.49e-06 |
| MMGMVFQS [SEQ ID NO: 47] | 1 | -6 | – |
| MMGMVF [SEQ ID NO: 45] | 0 | 10 | – |
| RRMMGMVEQCLCG[dA] (cysteine pairing not given here) [SEQ ID NO: 12] | -1 | 24 | – |
| MMGMVFQ [SEQ ID NO: 46] | 0 | 11 | – |
| RMMGMVFQ [SEQ ID NO: 51] | 0 | 24 | – |
| RMMGMVF [SEQ ID NO: 50] | 0 | 8 | – |
| MMGMVFQSLCG[dA] [SEQ ID NO: 49] | 1 | 14 | – |
| MRRMMGMVFQCLCGL [SEQ ID NO: 7] | 91 | 109 | 1.24e-06 |
| MMGMV [SEQ ID NO: 44] | 0 | 5 | – |
| RRLLGLVEQSLCG[dA] [SEQ ID NO: 40] | 0 | 19 | – |
| KRRMMGMVFQSLCGA ((PEG12) at the N-terminal K; C-terminal (dA) = D-alanine) [SEQ ID NO: 36] | 63 | 101 | 1.6e-06 |
